T1: BOTRYTIS-INDUCED KINASE1 (BIK1), His-tagged recombinant protein (Arabidopsis thaliana, UniProt O48814 1-395)
T1 construct: BOTRYTIS-INDUCED KINASE1 (BIK1), Arabidopsis thaliana, full-length ORF cloned into pET-28; source: E. coli BL21, purified (Ni-Sepharose beads)
T1 sequence (looked up): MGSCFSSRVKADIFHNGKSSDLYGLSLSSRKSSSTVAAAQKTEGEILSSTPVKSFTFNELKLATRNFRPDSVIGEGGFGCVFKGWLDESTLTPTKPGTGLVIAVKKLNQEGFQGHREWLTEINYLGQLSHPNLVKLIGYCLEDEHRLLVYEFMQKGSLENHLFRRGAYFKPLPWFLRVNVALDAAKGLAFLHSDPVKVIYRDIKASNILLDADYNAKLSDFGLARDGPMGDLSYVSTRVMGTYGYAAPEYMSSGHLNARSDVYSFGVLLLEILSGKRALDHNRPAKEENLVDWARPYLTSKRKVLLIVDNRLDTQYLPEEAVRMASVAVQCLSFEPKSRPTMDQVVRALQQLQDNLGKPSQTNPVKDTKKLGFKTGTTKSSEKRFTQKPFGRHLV

B1: ERECTA (ER) cytoplasmic domain, GST-tagged recombinant protein (domain or fragment, Arabidopsis thaliana, UniProt Q42371 602-976, looked up)
chain: CRPHNPPPFLDGSLDKPVTYSTPKLVILHMNMALHVYEDIMRMTENLSEKYIIGHGASSTVYKCVLKNCKPVAIKRLYSHNPQSMKQFETELEMLSSIKHRNLVSLQAYSLSHLGSLLFYDYLENGSLWDLLHGPTKKKTLDWDTRLKIAYGAAQGLAYLHHDCSPRIIHRDVKSSNILLDKDLEARLTDFGIAKSLCVSKSHTSTYVMGTIGYIDPEYARTSRLTEKSDVYSYGIVLLELLTRRKAVDDESNLHHLIMSKTGNNEVMEMADPDITSTCKDLGVVKKVFQLALLCTKRQPNDRPTMHQVTRVLGSFMLSEQPPAATDTSATLAGSCYVDEYANLKTPHSVNCSSMSASDAQLFLRFGQVISQNSE
notes: ERECTA (ER), Arabidopsis thaliana, truncated to the cytoplasmic domain (CD), in pGEX-4T-1; also called GST-ER-CD; ER-CD; source: E. coli BL21, purified (Glutathione Sepharose beads)
B2: ER-LIKE1 (ERL1) cytoplasmic domain, GST-tagged recombinant protein (domain or fragment, Arabidopsis thaliana, UniProt C0LGW6 604-966, looked up)
chain: YKSMQQKKILQGSSKQAEGLTKLVILHMDMAIHTFDDIMRVTENLNEKFIIGYGASSTVYKCALKSSRPIAIKRLYNQYPHNLREFETELETIGSIRHRNIVSLHGYALSPTGNLLFYDYMENGSLWDLLHGSLKKVKLDWETRLKIAVGAAQGLAYLHHDCTPRIIHRDIKSSNILLDENFEAHLSDFGIAKSIPASKTHASTYVLGTIGYIDPEYARTSRINEKSDIYSFGIVLLELLTGKKAVDNEANLHQLILSKADDNTVMEAVDPEVTVTCMDLGHIRKTFQLALLCTKRNPLERPTMLEVSRVLLSLVPSLQVAKKLPSLDHSTKKLQQENEVRNPDAEASQWFVQFREVISKSSI
notes: ER-LIKE1 (ERL1), Arabidopsis thaliana, truncated to the cytoplasmic domain (CD), in pGEX-4T-1; also called GST-ERL1-CD; source: E. coli BL21, purified (Glutathione Sepharose beads)
B3: ERL2 cytoplasmic domain, GST-tagged recombinant protein (domain or fragment, Arabidopsis thaliana, UniProt Q6XAT2 607-967, looked up)
chain: YKSKQQKPVLKGSSKQPEGSTKLVILHMDMAIHTFDDIMRVTENLDEKYIIGYGASSTVYKCTSKTSRPIAIKRIYNQYPSNFREFETELETIGSIRHRNIVSLHGYALSPFGNLLFYDYMENGSLWDLLHGPGKKVKLDWETRLKIAVGAAQGLAYLHHDCTPRIIHRDIKSSNILLDGNFEARLSDFGIAKSIPATKTYASTYVLGTIGYIDPEYARTSRLNEKSDIYSFGIVLLELLTGKKAVDNEANLHQMILSKADDNTVMEAVDAEVSVTCMDSGHIKKTFQLALLCTKRNPLERPTMQEVSRVLLSLVPSPPPKKLPSPAKVQEGEERRESHSSDTTTPQWFVQFREDISKSSL
notes: ERL2 (ER-LIKE2), Arabidopsis thaliana, truncated to the cytoplasmic domain (CD), in pGEX-4T-1; also called GST-ERL2-CD; source: E. coli BL21, purified (Glutathione Sepharose beads)

Target: T1, BOTRYTIS-INDUCED KINASE1 (BIK1), …
Assay: pull-down; 10 µg BIK1-His and 10 µg GST-ER/ERL1/ERL2-CD or GST with glutathione agarose beads, 25 mM Tris-HCl pH 7.5, 150 mM NaCl, 1 mM DTT, 3 h; eluted with 30 mM glutathione; BIK1-His detected with anti-His antibody
Conditions: both partners purified

| Binder | binding result |
| --- | --- |
| B1 | binds |
| B2 | binds |
| B3 | binds |
